Source: publication PMC5539989

Biological target: GAL4 DBD-BRCA1 wild type (C-terminal region) (human) (UniProt P38398)
Assay: two-hybrid; mammalian two-hybrid: GAL4 DBD-BRCA1 as bait, VP16 AD-PALB2 as prey, co-transfected with the pG5Luc luciferase reporter and the phGR-TK Renilla control; read-out is luciferase activity above that of the BRCA1 construct alone

Sequence of UniProt P38398 (P38398 1396-1863): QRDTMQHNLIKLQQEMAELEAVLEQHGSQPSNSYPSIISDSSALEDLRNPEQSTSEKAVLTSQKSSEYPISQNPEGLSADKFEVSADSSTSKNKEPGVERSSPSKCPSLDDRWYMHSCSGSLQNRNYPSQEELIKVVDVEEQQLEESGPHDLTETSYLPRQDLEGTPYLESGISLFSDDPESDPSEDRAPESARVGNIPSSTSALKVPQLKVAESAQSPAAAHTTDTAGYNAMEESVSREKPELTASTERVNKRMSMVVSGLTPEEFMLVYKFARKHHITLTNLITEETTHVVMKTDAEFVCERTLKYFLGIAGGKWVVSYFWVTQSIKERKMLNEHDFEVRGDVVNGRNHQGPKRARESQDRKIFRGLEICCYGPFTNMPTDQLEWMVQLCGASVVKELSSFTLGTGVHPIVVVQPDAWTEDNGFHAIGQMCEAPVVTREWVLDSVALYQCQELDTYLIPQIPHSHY

fold increase in luciferase activity with VP16-PALB2: 3.8 fold
B1: VP16 AD–PALB2 fusion protein (PALB2 aa 1–319) (domain or fragment)
chain: MDEPPGKPLSCEEKEKLKEKLAFLKREYSKTLARLQRAQRAEKIKHSIKKTVEEQDCLSQQDLSPQLKHSEPKNKICVYDKLHIKTHLDEETGEKTSITLDVGPESFNPGDGPGGLPIQRTDDTQEHFPHRVSDPSGEQKQKLPSRRKKQQKRTFISQERDCVFGTDSLRLSGKRLKEQEEISSKNPARSPVTEIRTHLLSLKSELPDSPEPVTEINEDSVLIPPTAQPEKGVDTFLRRPNFTRATTVPLQTLSDSGSSQHLEHIPPKGSSELTTHDLKNIRFTSPVSLEAQGKKMTVSTDNLLVNKAISKSGQLPTSS
